Substitutions are numbered along the chain they refer to.
B1: wild type E. coli PepQ, P21165 1-443 (enzyme)
chain: MESLASLYKNHIATLQERTRDALARFKLDALLIHSGELFNVFLDDHPYPFKVNPQFKAWVPVTQVPNCWLLVDGVNKPKLWFYLPVDYWHNVEPLPTSFWTEDVEVIALPKADGIGSLLPAARGNIGYIGPVPERALQLGIEASNINPKGVIDYLHYYRSFKTEYELACMREAQKMAVNGHRAAEEAFRSGMSEFDINIAYLTATGHRDTDVPYSNIVALNEHAAVLHYTKLDHQAPEEMRSFLLDAGAEYNGYAADLTRTWSAKSDNDYAQLVKDVNDEQLALIATMKAGVSYVDYHIQFHQRIAKLLRKHQIITDMSEEAMVENDLTGPFMPHGIGHPLGLQVHDVAGFMQDDSGTHLAAPAKYPYLRCTRILQPGMVLTIEPGIYFIESLLAPWREGQFSKHFNWQKIEALKPFGGIRIEDNVVIHENNVENMTRDLKLA
B2: PepQ-24F (enzyme)
chain: B1 chain with A24C
modifications: fluorescein (5-iodoacetamidofluorescein) on the cysteine at position 24

What was measured:
[1] = molecular target: single-ring mutant of GroEL, SR1 (E. coli), P0A6F5
[2] = molecular target: single-ring truncation mutant, SRΔ526 (E. coli); test: protease protection (encapsulation); denatured PepQ-24F (100 nM) bound to wild-type or Δ526 GroEL-GroES-ADP bullets (200 nM) or full-length or Δ526 single-ring GroEL (300 nM) with GroES (600 nM); single turnover with ATP (2 mM), quenched after 10 s; unencapsulated PepQ digested with Proteinase K; SDS-PAGE, fluorescein scan

Row | Binder | observed folding rate constant of PepQ by recovery of enzymatic activity, bound to SR1 (300 nM) and refolded with GroES (600 nM) and ATP (2 mM) [1] [min⁻¹] | early escape compared to SR1 [2] [%]
1 | B1 | 0.62 | 
2 | B2 |  | < 10

— article PMC5497066
